Data: IntAct's records for PubMed 18188153

B1: Glutamate receptor 4 (Rattus norvegicus (Rat)), P19493 (parent)
chain: MRIICRQIVLLFSGFWGLAMGAFPSSVQIGGLFIRNTDQEYTAFRLAIFLHNTSPNASEAPFNLVPHVDNIETANSFAVTNAFCSQYSRGVFAIFGLYDKRSVHTLTSFCSALHISLITPSFPTEGESQFVLQLRPSLRGALLSLLDHYEWNCFVFLYDTDRGYSILQAIMEKAGQNGWHVSAICVENFNDVSYRQLLEELDRRQEKKFVIDCEIERLQNILEQIVSVGKHVKGYHYIIANLGFKDISLERFIHGGANVTGFQLVDFNTPMVTKLMDRWKKLDQREYPGSETPPKYTSALTYDGVLVMAETFRSLRRQKIDISRRGNAGDCLANPAAPWGQGIDMERTLKQVRIQGLTGNVQFDHYGRRVNYTMDVFELKSTGPRKVGYWNDMDKLVLIQDMPTLGNDTAAIENRTVVVTTIMESPYVMYKKNHEMFEGNDKYEGYCVDLASEIAKHIGIKYKIAIVPDGKYGARDADTKIWNGMVGELVYGKAEIAIAPLTITLVREEVIDFSKPFMSLGISIMIKKPQKSKPGVFSFLDPLAYEIWMCIVFAYIGVSVVLFLVSRFSPYEWHTEEPEDGKEGPSDQPPNEFGIFNSLWFSLGAFMQQGCDISPRSLSGRIVGGVWWFFTLIIISSYTANLAAFLTVERMVSPIESAEDLAKQTEIAYGTLDSGSTKEFFRRSKIAVYEKMWTYMRSAEPSVFTRTTAEGVARVRKSKGKFAFLLESTMNEYTEQRKPCDTMKVGGNLDSKGYGVATPKGSSLGNAVNLAVLKLNEQGLLDKLKNKWWYDKGECGSGGGDSKDKTSALSLSNVAGVFYILVGGLGLAMLVALIEFCYKSRAEAKRMKLTFSEATRNKARLSITGSVGENGRVLTPDCPKAVHTGTAIRQSSGLAVIASDLP

Variants of: B1
Settings: with mk08_rat Mapk8, P49185
Sequence of mk08_rat Mapk8, P49185 (P49185 whole entry): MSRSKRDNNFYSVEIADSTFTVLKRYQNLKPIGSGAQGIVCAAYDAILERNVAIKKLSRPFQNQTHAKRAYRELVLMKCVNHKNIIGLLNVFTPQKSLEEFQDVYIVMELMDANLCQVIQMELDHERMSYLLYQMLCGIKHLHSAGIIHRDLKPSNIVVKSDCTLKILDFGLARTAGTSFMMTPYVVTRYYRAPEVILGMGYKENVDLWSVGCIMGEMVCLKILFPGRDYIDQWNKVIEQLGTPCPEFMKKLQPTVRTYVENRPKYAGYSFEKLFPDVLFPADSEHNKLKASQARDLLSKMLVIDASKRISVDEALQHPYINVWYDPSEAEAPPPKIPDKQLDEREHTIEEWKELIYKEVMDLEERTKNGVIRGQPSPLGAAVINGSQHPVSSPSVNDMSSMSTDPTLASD

| Variant | effect of a mutation on the interaction |
| --- | --- |
| T855A | disrupting interaction |
